Assay: soluble on expression in E. coli; label from the status in PepcDB or PDB records

| Sequence | soluble on expression in E. coli |
| --- | --- |
| MSLSQLVLILGDQLSPSIAALDGVDKKQDTIVLCEVMAEASYVGHHKKKIAFIFSAMRHFAEELRGEGYRVRYTRIDDADNAGSFTGEVKRAIDDLTPSRICVTEPGEWRVRSEMDGFAGAFGIQVDIRSDRRFLSSHGEFRNWAAGRKSLTMEYFYREMRRKTGLLMNGEQPVGGRWNFDAENRQPARPDLLRPKHPVFAPDKITKEVIDTVERLFPDNFGKLENFGFAEGHHHHHH | not soluble |
| MSLSSAPDIILHRGLFTTLDRSNPAASAVAIADGRFVAVGHDHDVMKLAGPSTKIVDLRGRRVLPGLIDNHLHIIRGGLNFNMELRWDGVRSLATAMDMLKRQVAVTPPPQWVRVVGGFTEHQFAEKRLPTIDELNAVAPDTPVFLLHLYDRAILNGAALRAVGYAKDTPEPPGGEIMRDTKGNPTGLLLAKPNANILYATLAKGPKLPFDYQVNSTRHFMRELNRLGVTGAIDAGGGFQNYPDDYAVIQKLSDEGLLTIRLAYNLFTQKPKGEKADFLNWTKTSKYKQGDDYFRHNGAGEMLVFSAADFEDFRVARPDMPAEMEGELEEVVRVLVQNKWPWRLHATYDETISRALDVFERVNQDIPLEGLHWFFDHAETISDQSIDRIAALGGGIAVQHRMAYQGEYFVERYGAGAAEATPPVKKIIDKGVKVSAGTDATRVASYNPWVSLSWLVTGRTVGGLRITPQRNCLDRETALRMWTENVTWFSNEEGNKGRIQVGQLADLVVPDRDYFSCSEAEIADTTSLLTMVGGRIVYGAGDFSKLESVTPPPAMPDWSPVRRFGGYAAWADDTAKTKDTSLAMKAMQMCGCANSCGVHGHDHAAAWSSRLPVSDLRSFWGALGCACWAVEGHHHHHH | not soluble |
| MSLSSAYDRKNLEKKNRELRELNDKIGDVAKTFETLQLELYNDLIKEFSKDLTSWNATIDPDNTIRFKEPDVLFDSGKSQVKERFKVVLDDFFPRYVKILSQEKYKGDIEEIRIEGHTSSEWLNAKTLEERYLGNAALSQARAFEVLKYCFALERIKGEQDWLIKVLRANGLSFAKPLDSEEHSRRVEFRTLTRSHQKMLKILDLSKEGHHHHHH | soluble |
| MSLSSAYQLVIFDWEGTIADTLGVILHTVATEAKMLGFGDIDPYQARKYVDLGLVQAVKKTLPNLTAGQQEDLLQAVQSAMISRPTEVRLIPGVLEFIQQLHQAKVDLAIATNKGHNSLIRALQATELDQLFKVTRSAGQVPAKPCPQMLEEIMEEFGRDPSSTLMIGDSTTDMEMAKRINVNAIGMDFYHQQEDALKAAGALAVFDDYKLLSAYLMLPEAEGHHHHHH | soluble |
| MSLSSEVVLMKPYEKLVERFNEMAAEFLSYFPTVKSVGNLESELDKRRFVILFRAMLRLRNEVKGYNEFDAEDLTIEEQRFADYQSKYLDMSNEFAITSEKEDAESILQDIDFELELVHRDIINVMYILALLQDLKPESSSYPKDRKAVLDTMDSNPELRSKIALIDNFIKLHIDGRQSNDLPADMESDLDKYIATQKAIAIEQVATEEGIDSTLLHEYISEYEYLGKPKNEIIKRAIDPLKLSFMDAQSKKKSLIDKMKDIIKLFSWNEGHHHHHH | soluble |
| MSLSSKKLGVILYGPPASGKDTVAQALSELDARYGQFARLKVGSGRTTRYRMGTAEQLHDLEAAGAAIYTNSRYGNTYVIDRPGMDSAFEAGVPVVHLGQIDGIRALVDGYTADWAVVLLWCSQEVTAQRSAGRGDSDTTARLAAWQATREDLDAHPDMRWDLTVDTEATAAEESARLIDQLLHARAGVTEGHHHHHH | soluble |
| MSLSSLGAPAISAASFLQDLIHRYGEGDSPTLQQLKALLNHLDVGVGRGNVTQHVQGHRNLSTCFSSGDLFTAHNFSEQSRIGSSELQEFCPTILQQLDSRACTSENQENEENEGHHHHHH | soluble |
| MSLSSPRIIATYHLASDADLVAERAKGLAIEQSVECPLAAVGDPVILDTIVGRVEDIAELTPGRYAVRIGLAAATAPAEPGQLINMLFGNSSMQQDVTLVDVELPPSYLAAFGGPRLGLAGLRALTGTQDRALTASALKPQGLSPAALARIAGQLARGGVDVIKDDHGIADQAYSPFAARVEAVGRAVQEANVARDGHSLYAPNLSGTLDDMRRQLDLAREQGIAAVMVAPMIVGLANFHAVVKAAAGMVVIAHPALSGVTRIAPPLLLGKLFRLFGADATIFPNAGGRFGFSTETCLQLARAGRDPWGALEPCMPVPAGGLTADRVAELLQFYGHDVMLLIGGGLLSARERLTEEAARFVNEVAAHGKAEGHHHHHH | soluble |
| MSLSSQPRFIHLRTHTDFSMIDSIVKVKPLVKACAANEMVAMGLTDFTNFCGVVSFYSEMLSSGMKPIIGADVKVKSPLCGDEYFDLTLLAKNNEGYRNITLLLSKAYQRGYNDLPYIDQDWLIEHRDGVIILSGGTQGDVGKKLLKENVAEIESAVAFYQEFFADHFYLALSRTGRPNEERYIQAALKLAERCDLPLVATNDVMFLNTEDFEAHEIRVAIHDGYTLDDPKRPKCYTSQQYFRSEEDMCKLFADEGHHHHHH | soluble |
| MSLSSTNDTIRRLQRDLLFLQNELRFEKFVRQQHLQNIGKLHREHILDMAVESERQKLLLTNKRYKAQIELLNSEIDKHRSESQAALNRRVKWENDFNNKIKALREEKKAWKSEESELKSSIESLISQLESIRNSQIDIAFSKNQLELKLQLYETKLKEYEQHLSCVNISKKQVSSSSDTSFGNTKMDSSMILSNSEAVSDEQERELIESEKHRMKLESENLHLQANIELLKKDLEAINVVYEAKIFDLEKRLSSEANAPELHNPVNLNYDAQLSKISEIKENYDELLTRYRELEGKFLESQAEVEELKNFQKPLVDTGSSIHSSPGLQQSKFIIRNDSLHPKVGPPRRQSTDTSRSTFRQYEGHHHHHH | soluble |
| MSLSTIREVAKLANVSIATVSRVLNNDTKYKMTEETKNRVLDAVTQLNYIPITTPRKKMTVTNSNICKDAKIGCILRVTKKGYNDPYYMSILAGVETQLREVGIELSFIKSAPILQDKSHLASTFSDSLDGLILMEPLNEDIYHYIKKRVPHVVGIDTLRDDIDDVGYDHLENGILATQHLIEKGHKEIGFIGGSGESQDIKDSKRYQGYVIAMHKAGLPIQKKWIIDCGWNEDECVAKVDALCKSNHYPTAFFAASDLMAMAAMKSFYTNGISVPKRVAVIGMSDIEMSQYSNPPLTTYHVPKEEIGRVATNLLLARIQGYETLPQKIILPTTFVERSSTEGHHHHHH | soluble |
| MSLSVQREDVDIKLIAIDMDGTLLNDEQLISDENRKAIREAEDKGVYVVISTGRTLMTCRELAESLKLSSFLITANGSEIWDSNFNLVERKLLHTDHIQMMWDLRNKHNTNFWASTVNKVWRGEFPENITDHEWLKFGFDIEDDDIRNEVLEELRKTKSSEITNSSPTNIEVNALGINKAAAPCQGYGKLGFTMENVMAMGDSLNDIAMIKEAGLGVAMGNAQDIVKETADYITDTNIEDGVAKAIRHWVLEGHHHHHH | soluble |
| MSLSVRVDYALVGRELEAREAVCLVFDGSDGRLSSISSSSSCPESSPKFTIAVPPSVNAHIHSSDVQWPEVGNDLSLEELVAPPRGLKHLLLQQAGERACAEAAVGVYRALGRMVVRAAADFREPAAGGCLPVREILATLGGLYTRVVLMGRPGDPYGLEGCDGIGLNSPLDVDPKRMRLLKKSGMRIHAHVAETREMRLEGDLEAALDIGVDTVIHGTHLSREDLELLREHGVTLVLSPRSNMWHGVGLPPVAEAYRVGVKIAFGTDNAAWNMLDPWDEARQAMLVARLQGVKDPGLPHYILKGLLSWGYEALGMEPPALAEGADMCSVALMRLEGYEAGLFRRSFSRYYTLLKIARGDLLQPVCTISGGLLEPAEGHHHHHH | soluble |
| MSLSVSEQLFPLTIIHLNDFHARFEETNTVSTRCKPDEGERCIGGYARVVSRVKSLQREYADRNPIYLNAGDNFQGTLWYSLLRWNVTAHFLNLLPADVMTLGNHEFEHGIGGLVPFLDVIDSPVVVTNIDDREEPTLQGKYTKSVVLERGGRKIGVVGVIHHLTNTMGMTERLRFLDEVEQLRMEIGRLKEEGVQHIVVLSHCGLEIDRIIARELPDVDVVVGGHSHTFLYNGTADGFPDDPEDTYPIVVEHPEGRTTLIVQAASYAKYVGRITLYFDEEGNIREWEGNPEFLDSSVPQDEEVLAQLAPWREQVNVQANREGHHHHHH | soluble |
| MSLSYEYFPGFYDRLMDSELYDEWLEFSADFIGDAPKKVLDLACGTAEFALRLSFSGHQVTGVDLSKEMVAVAKEKVAAAEIDLPIIEQDMSKLALKQTFDVVTCFCDSLNYLETEQALEATIQAVSAHLEPNGLFLFDVHSVFKIEQGFKDYSYGDSDEEISTIWNSFPGEHPHSIEHELTFYILGEDDTYNRVDELHKERTYPIATYENLLKKFGFTKIDIYADFSHEKPNKTSERIFFAARKEGHHHHHH | soluble |
| MSLSYTTQQIIEKLRELKIVPVIALDNADDILPLADTLAKNGLSVAEITFRSEAAADAIRLLRANRPDFLIAAGTVLTAEQVVLAKSSGADFVVTPGLNPKIVKLCQDLNFPITPGVNNPMAIEIALEMGISAVKFFPAEASGGVKMIKALLGPYAQLQIMPTGGIGLHNIRDYLAIPNIVACGGSWFVEKKLIQSNNWDEIGRLVREVIDIIKEGGSHHHHHH | soluble |
| MSLTAPLEWKQANFLSISDSHGWLLGHQHSTWPEPNYSGNYGSFASFVIHMRKIADEKGVDLLLIDAGDHHDGSGLVSSSPDSASLAEDIFSMISYDVITIGNHELYHYADALDIYENHERWGGRYVTSNVNITVKREGEWQSVPIGQTHLKFTTKQGYNVTAFGVIFDFKAHDKGITVQKPSKLVHEPWFQEAIRDAPDYFILAGHMPVRGETAEFAPVFDAIRDIHPQVPIFLFGGHTHVRDCVQYDERSIGVVPGKYLETVAFTSSSLPSSSGDDRPLDVARSYQWHTNQTSYTFDTEGHHHHHH | soluble |
| MSLTDINLKGGKLSIEQLNTIFETIPVEFDFIDENDIIRWSSANRHRLFKRTDADLGKHVLEVHPGHSQNHVKQVLHDMHSGDRDSISIMIKHHGQPVNIAFYALRDDQNKYLGCVEVTQDVSKQQTKGSFWRNIMQVLHKKEGHHHHHH | soluble |
| MSLTDVEEQQLTVLKDPNCGCCEKWLQALPDSFSVSVQHPNNLTQRKRDSGISAEVQSCHTAISSNGYVFEGHVPPTLVSHYLAGKKSENGIGLTVPGMPVGSVGMEMGTRFQPYTVYEIKKDGSITPYQQIASLEQQQALSNEGLEGHHHHHH | soluble |
| MSLTDVLTATYELYLAEGESPEGKARGIALEQTVEMPADCLPGDIAERMVGRIRTLEPRADHWVLEIDYPLAAIGGELTQCLNLLFGNISLQSGIRLVQVAWPPSLLRRWGGPGLGVSGLRARLDVGARPLLCAALKPMGLSAPALAARCAAFARGGVDLIKDDHGLADQPDAPFAERLNACQDAVRQANRRSGGRSLYLPNVTAAPQALGERLAAARDAGCEMVLISPWLTGLETLRWARDEYGLALMAHPAMTGGLFLPRHGISPALLLGELFRIAGADAVIYPNVGGRFRFSADTCQAINHALRRPLEGLASAWPTPGGGVDVKRAGHWKQAYGPDTILLIGGSLYAQGDIEAASRALMQAIRDEGHHHHHH | soluble |
| MSLTEIGIVAVGGYNEMGRNMTAIIIGEDIVILDMGLRLDRVQIHEDVEIDKMHSLELIEMGAIPDDTIMKEINGTVRAIVCTHGHLDHIGAIPKLAHRYNAPILATPYTAAIIRQQIESERKFEVCNRVIPLQAGGTYQVTEDISIEFIRVQHSIIDCVLAAVHTPAGAVLYACDFKLDRTPTMGEAPDFDRFKSLGKEGVIAMITESTNAGRSGKTPSEQIAKDMVRDVLLGTEESGVGMIVTTFASHIARLKAIIEAAEEMGRIPVLMGRSMERYVGAARDIGYLDLPSNVEIYGTRKDVDRAFKRIMQEGKNKYLPIVTGHQGEPGSILVRVANGETPYTIDPGDRIIFSANVIPSPMTQANRYALETKLRMKGGRIYDDVHVSGHAYREDHWELLRMVNPEHVIPAHGDMEMHGHYIEMAEDAGYVLGDTVHLLRNGEVLYIEEEGHHHHHH | soluble |

— the DeepSol protein solubility set
